# Results reported in the DeepSol protein solubility set.
# Assay: soluble on expression in E. coli; label from the status in PepcDB or PDB records
row,Sequence,soluble on expression in E. coli
1,MHGESPIKRRESRKIWVGSVPVGGDAPIAVQSMTNSDTNDVAATVAQINRLEAAGVDIVRISVPDMDAAEAFGRIKQLVKVPLVADIHFDYRIALRVAELGVDCLRINPGNIGREDRVRAVVDAARDRGIPIRIGVNAGSLEKDLQKKYGEPTPEALVESALRHVEHLERLNFKDFKVSVKASDVFMAVAAYRLLAKQIVQPLHLGITEAGGLRSGTVKSAVGLGMLLAEGIGDTIRISLAADPVEEVKVGYDILKSLRLRSRGINFIACPSCSRQNFDVVKTMNELEGRLEDLLVPLDVAVIGCVVNGPGEAKEAHIGLTGGTPNLIYIDGKPAQKLTNDNLVDELERLIREKAAEKTAADASVIVRGLEHHHHHH,not soluble
2,MSHSEAGQAASVRRVLAVIPARGGSKGVPAKNLLPVGGVPLVARAVRECRATRLVTDVVVSTDDHAIAAAAREAGAEVVLRPAAIAGDTATSEAAVLHAMDTHEALHGAAVDVVLLVQCTSPFIVREDVDGVVHAIVGKGADTALTVAPFHGFVWRDADDAPGALGAERAAVEGGTDTLVTGTATSGGYGINHDKSFRPRRQDRPQDLLETGAVYGMDATGFREARHRFFGRTELVRTDPARVLEIDDPHDLARARALAPLFDANRPGALPTAEDIDAVVLDFDGTQTDDRVLIDSDGREFVSVHRGDGLGIAALRKSGLTMLILSTEQNPVVAARARKLKIPVLHGIDRKDLALKQWCEEQGIAPERVLYVGNDVNDLPCFALVGWPVAVASAHDVVRGAARAVTTVPGGDGAIREIASWILGPSLDSLDKLEHHHHHH,not soluble
3,MRYDVVIIGGGLAGLTCGIRLAEQGKRCAIVSAGQNALHFSSGALDLLSHLPDGQPVSQPLDALDELARQAPHHPYSRMGAAAVAALLPQVEALLERSNISLLGNHQQNHWRMTPLGKFRACWLSPADGVTRGLADSHFGDNPLIAGIEGFLDFQSRIVAGTLQTQGIAARSDELKLPVLDRLRQNPSEFRAVNIARLLDRPENRSALVEELSLLANGNDAIIMPACLGLDSPEIVSELADALGKPVLLLPTLPPSVLGLRLHQALSQRFRQLGGMVMPGDRAVRASLSSQEIAVHSHHHRDIPLRAKHAVLASGSFFSNGLVTQFDRVTEPVFGLDVRFAEQREGWSQQDVFAPQPYMQFGAIVDEHLHPRIAGETVNNLYAIGAVLEGFDPIVQGCGAGVSLLSALHVAEQILKEGNPLEHHHHHH,soluble
4,MAQHFRLSTAARQLSSDSLVCLPDAEIFQRLKQARWGNADNFVCPHCHIRHLAYFISTRKQWQCKHCQHRFSITAGTIFQGAKLPLRKILLAILYFATESKGLSAIALSHKLNVQYKTAWVLLHKFRESLDKAKDLTPLNGEVHIDGAYTNYYIRPKNFRHKRIDRRKKRYQRADKSCVLVFRQRAANQAVMKGADRSIVALVKEENTKDVLELTQRLVKPNSTIHADENPAYDCLAFHYDLWRVNHSQEYRSIEGITNNLAESFFARLRRAITGIYHKMSNKYLMYYANEMVWREDHRRKSVKEKFEQLLTCCLNTLPSRDFTGYWQGNKKGEAVFGLASLTASNDLHYLKAALEHHHHHH,soluble
5,MGSDKIHHHHHHMALPSLNGMRAFEAAARLGSIKDAAEELHLTPSAISRHIRALERNLGQDLFERGFRQITPTIRGSYYARSLSEAFEAIWRATDDVSLADGPSHGRTQRVRVLCVPAVLNLWLADRLPNFRRLHPAVELEISTSGKRANFDLAIVDEFVYKAGPALTLLIPLVLTPVCAPSLLDGPVPLRSPADLVNHHLIHECESMRWKRWLEQEGVLDTTPKSSTTLDDCTLIMREAINGAGIALADTMMAQDFLQQGKLVAPFPARHTYPAGIYLHQRRSIGNKPGTGLFQDWLLSEVEDHKRVMAIA,not soluble
6,GPLGSSIMKILLIGDSGVGKSCLLVRFVEDKFNPSFITTIGIDFKIKTVDINGKKVKLQLWDTAGQERFRTITTAYYRGAMGIILVYDVTDERTFTNIKQWFKTVNEHANDEAQLLLVGNKSDMETRVVTADQGEALAKELGIPFIESSAKNDDNVNEIFFTLAKLIQEKIDSN,soluble
7,MSLNYSVLPPEINSLRMFTGAGSAPMLAASVAWDRLAAELAVAASSFGSVTSGLAGQSWQGAAAAAMAAAAAPYAGWLAAAAARAAGASAQAKAVASAFEAARAATVHPMLVAANRNAFVQLVLSNLFGQNAPAIAAAEAMYEQMWAADVAAMVGYHGGASAAAAQLSSWSIGLQQALPEGHHHHHH,soluble
8,TAILVTTRDGTRTEIQAEPGLSLMEALRDAGIDELLALCGGCCSCATCHVLVAPAFADRLPALSGDENDLLDSSDHRTPHSRLSCQITINDKLEGLEVEIAPED,soluble
9,MTASDYEWQPDILGKDFQQLVIPLGADPISEGGEDDIFATLVRYAPADQPTPTSRPAVLFVHGMTDYFFQRHVAQWFHQHGFSVYALDLRKCGRSHRNNQSWHYISDISRYFEELDRAKSIIEELHPTIFPIGHSTGGLILAHWLDGLRQCETLHPTIPGAILNSPWLDMMTPATVTRALRPILTRAARRFPHASFGRSKEGTYGRSLHASRSGEWDYDISFKPLTGHLRKLGWLHAIDTAQSLVHNDAVDCGIPLLMLCSDHSSLRGKFSPRAQVTDTVLDVEQMKRWAPHLSEYVSVCTIRGAVHDVYLSQKPARLQALETSVRWMNRILSEHTI,not soluble
10,MGSDKIHHHHHHMDTLTRIRAFIDVVEAEGFSAAARKTGRSKALLSKYVRELEDELGALLLNRTTRQFSMTEAGHTYYRSAADILKEIDNLADLVRENNVGISGKIRITVPRSFTDAEVGQSLIDFALQHPDLSIEIVAEDRFVDLIEEGFDLAIRVTKLEDSGMIARKLADFRSYACASPVFLEKYGPLTHPQDLSKVPVLIDTNTRGHNSLRLRQPDGEAFTVNISGPLEVNSPQTTLRGALSGLGIALLPDFVARRHIESGALISIFEDYMPSGSGIYAVYPHRRYLPAKVRALVDFMHNWFKRNGTCQPKQGTPPSE,not soluble
11,MRILNQDNNIAVRNVLLMLTMEEAAELKDDLERLLSKKALNDHSHINDLEYEHELTISLYDENNIEEFDERIKKLIIQDE,not soluble
12,MGKEQFREADKALKVVGVKFAPGDCEFMRQTAHVPIFNNKLYEDVEGKLQPANYGPLDPKMGVSTKTGTCSTCGLGLTDCVGHFGYFDLDVPVFHIGFFKLTIQLLQCICKNCSSILLTPEQHRVFSRQVMNPNLDYLHRKALHKRIVAACKKGSTCSHCGLKNGTVKKAVGAVLKIAFASPVSVDELGKFATMFSSNQEVGDHVRKMKFTLLNPLFVQKLFSNIKEGDIPVLMVRSGEEKHPNDLLLTRMPVPPVCIRPSVVSEVKAGTTEDDVTMKLMEIMLTNDVLKKHKRDGAPSKTLFETWEHLQIQCALYINSEMSGLPPDMQPKRAMRAFTQRLKGKQGRFRGNLCGKRVDFSGRTVISPDPNLRIDQVGVPIHVAMTLTFPEIVNASNIEKMRQLVINGSDVHPGANYLVEKKTGNKKLLKYGKRDELAKNLRMGDTIERHLDDNDVVLFNRQPSLHKISIMSHRAKVMPGRTFRFNECACTPYNADFDGDEMNLHLPQTYEAKAEASELMNVKNNLITPRSGEPLVAAIQDFITGGYLLTHKDTFLPRAEVYRFAAALIDASAKKQTKIRIPPPAIRRPVELWTGKQLIELIIRPDKGSDVSLNLTAKNKSYTGNLELCSKDSYVIIRNSVLLAGCLDKSLLGSSSKVNIFYMLMRDYGEDAAVDAMWRLARMAPVFLSNRGFSIGIGDVRPSEQLLREKGQLVDNGYSKCSQYIKELEEGKLKAQPGCTEEETLESIILRELSTIRDHAGQVCLRNLSKYNAPLTMAVCGSKGSFINISQMIACVGQQAISGHRPPDGFEERSLPHFERKKKTPEAKGFVANSFYSGLTPTEFFFHTMGGREGLVDTAVKTAETGYMQRRLVKCLEDLCASYDGTVRSSVGDVIEFVFGEDGLDPAMMEAKDGSVVDFTHVLEHAKNIQTTKEQPIPVDKLDEVLKAEIQKKFKGKYVHFADKLSEYITQTEIKKSKKWQNGKAHCGNHETADLKTKESCKICKNLEAYKTSLLANSCLTKTQLCSFIELCYYKVARAITEPGTAVGAIAATSIGEPSTQMTLKTFHFAGVASMNITQGVPRIKEIINAVKTISTPIITAALLDPYDESLARRVKARIEKTTLGEICDYIEEVYLPDDYFLLVKLNSKRIRLLQLEVCMESISYAIATSKVCPQMRGCKIVAHGKTMMAIRPPSTSKLSKTMTMQILKYSLANVVVKGIPSVNRCVIHADEKKGDFYSLLVEGTDFRSVLSSVGVDPRKTNFNNALVVADVLGIEAARSCIINEIIATMDAHGIGLDRRHVMLLADVMTYRGEVLGITRNGLVKMKDSVLLLASFEKTMDHLFEAAFFSQRDVIHGVSECIIMGTPMTVGTGTFKLMQKYDKKAVLKQNSPIFERLNVTL,not soluble
13,RVESLMTHRSDIIALDLDDPVDENLKKMIASGRSNFPVYERDLDDVIGIVSVKDVLAKLVESGKVDIRASVTKPLFAPEAITILKLLESFKETGMHIALITDEYGSVQGIITLHDILEAIVGDVRSLGEPEEEQI,not soluble
14,MGSDKIHHHHHHMIPRLELRSITKCYPGTVANDAVSLSILPGEIHAVLGENGAGKSTLMKIIYGAAQADSGEIYCDGRRIEAHNPAISRSLGIEMVYQHFALFESVSVVENIALAVKGTFDLDRLAAEIKTLSARYGMPIDPHRRVHDLSVGERQRVEIVRCLLQSPKLLILDEPTSVLTPQAVVKLFETLRQLASEGCSIVYISHKLDEVQELCDTATVLRNGKVTGTAKPKESTSLELARMMVGSQLPQMHVSPSAPSAKPLLEVRGLSAPARDKYGTELTDVSLEVHGGEIVGLAGVSGNGQAELIALLSGERTHPRAETILIGGRPSGHLNAGERRKLGMAFVPEERLGRGAVPPHALWENAVLTAHRAGLVRNALVDRRRAGEFARHIIERFKVKANGPQASAQSLSGGNLQKFIVGRELTLEPKILLVSQPTWGVDVGAAAFIRQTLVDLSRGGAAVLVVSEELDELFEICDRLLVISNGRVSPPLIRKQTNREEIGLLMTRVGHGETRRSEVALED,not soluble
15,MGSDKIHHHHHHMSYSDVIAIAGGWEGYRVAGARTIVTSDAKRIEVELIALSQDEMVCGSCGGRCTSVHETTKRVIRDLPILDAQTYLIVHRRRLLCPQCGPTLERLSWLAKYARVTRRLAESVARLCGVVSVKHVAQYLGLSWDQVKEIDKRSLTERVGTVDLSNIEVLGMDEFALHKGHRYATVIIEPYRKEVLWIGKGRSRESIRPFFTQLGPHGCKRLKAVVMDMNASYEEEIKQHSPQADIVYDLFHVVAKYGREVIDRVRVDEANRLKEDKKARKVVKTSRWLLLRNSENVKGDDMLRLQELLEANRSLLTVYLLKDDLKQLWKFTCIEEAGLFWEQWHQRAMESGIPPLILFARRLKGYLQGILNHCLWPLHTGILEGINNKIKVIKRMAYGFRDHEYFFLKIRAAFPGIPG,not soluble
16,SNAMSMAYEEYMRQLVVPMRRELTGAGFEELTTAEEVENFMEKAEGTTLVVVNSVCGCAAGLARPAATQAVLQNDKTPDNTVTVFAGQDKEATAKMREYFTGAAPSSPSMALLKGKEVVHFIPRHEIEGHDMEEIMKNLTAAFDAHC,soluble
17,MHHHHHHSSGVDLGTENLYFQSMASSHLNKGIKQVYMSLPQGEKVQAMYIWIDGTGEGLRCKTRTLDSEPKCVEELPEWNFDGSSTLQSEGSNSDMYLVPAAMFRDPFRKDPNKLVLCEVFKYNRRPAETNLRHTCKRIMDMVSNQHPWFGMEQEYTLMGTDGHPFGWPSNGFPGPQGPYYCGVGADRAYGRDIVEAHYRACLYAGVKIAGTNAEVMPAQWEFQIGPCEGISMGDHLWVARFILHRVCEDFGVIATFDPKPIPGNWNGAGCHTNFSTKAMREENGLKYIEEAIEKLSKRHQYHIRAYDPKGGLDNARRLTGFHETSNINDFSAGVANRSASIRIPRTVGQEKKGYFEDRRPSANCDPFSVTEALIRTCLLNETG,soluble
18,ATLHSFVLVDNGGTGNVTVVPVSNANGVAEWLSNNSRSQAYRVTASYRASGADKRKYTIKLEVPKIVTQVVNGVELPVSAWKAYASIDLTIPIFAATDDVTVISKSLTGLFKVGNPIAEAISSQSGFYA,soluble
